# Bridge positions count the residues as written; N and C are the ends. Square brackets hold non-standard residues; d marks the D form. S5 = C=CCCC[C@](C)(N)C(=O)O; Nle = CCCC[C@H](N)C(=O)O
# Target: T1, His6-tagged p300 (AA 323-423) (UniProt Q09472 323-423)
# T1 construct: range 323-423; also called p300-CH; not shown: His6 tag
# Test: TR-FRET HIF1a/p300 displacement; grade = IC50 >700 nM
# Procedure: The ability of peptides to displace HIF1α c-terminal trans-activation domain from p300-CH was measured by a TR FRET assay. […] The complex was diluted to 300 nM final in complete assay media and competitor peptides were added. The complete assay media contained 150 mM NaCl (Sigma +S5150 or equivalent), 20 mM HEPES pH 7.4 (Boston Bioproducts, Ashland, Mass.; #BB-2076), 7.5 mM CHAPS (Thermo #28300 or equivalent), and 1 mM DTT. Protein and peptide were incubated at room temperature for 1 hour before the addition of anti-Flag-K and anti-6×HIS-D2 (CisBio, Bedford Mass.) HTRF reconstitution buffer (50 mM Phosphate pH 7, 0.8 Potassium Flouride, BSA 0.2%)¹ to a final concentration of 0.5 μM and 4 nM respectively. The reaction continued for an additional two hours at room temperature. The reaction was read on a TECAN F500 plate reader with settings recommended by CisBio. The ratio of donor to acceptor fluorescence was calculated. The resulting data was analyzed with Graphpad Prism 5.0. IC50 values were calculated for both proteins using the One Site Fit-LogIC50 equation and presented in the column “IC₅₀ (nM) (HIF1α_p300 Displacement+CHAPS)” of Table 6. ¹ Cisbio USA, Bedford, Mass.; 61HISDLB (lot 007A), 61FG2KLB (024A), HTRF Buffer (62RB3RDF)
# T1 sequence (Q09472 323-423 limits assumed): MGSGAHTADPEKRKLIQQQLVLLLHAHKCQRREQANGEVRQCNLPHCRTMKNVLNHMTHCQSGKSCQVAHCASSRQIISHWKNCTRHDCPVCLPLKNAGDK
row,IC50,Binder
1,> 700 nM,Ac-FIDEEVE[Nle][S5]LVI[S5][Nle]ALDRI-NH2 (staple 9-13; SMILES CCCC[C@H](NC(=O)[C@H](CCC(=O)O)NC(=O)[C@@H](NC(=O)[C@H](CCC(=O)O)NC(=O)[C@H](CCC(=O)O)NC(=O)[C@H](CC(=O)O)NC(=O)[C@@H](NC(=O)[C@H](Cc1ccccc1)NC(C)=O)[C@@H](C)CC)C(C)C)C(=O)N[C@@]1(C)CCCC=CCCC[C@@](C)(C(=O)N[C@@H](CCCC)C(=O)N[C@@H](C)C(=O)N[C@@H](CC(C)C)C(=O)N[C@@H](CC(=O)O)C(=O)N[C@@H](CCCNC(=N)N)C(=O)N[C@H](C(N)=O)[C@@H](C)CC)NC(=O)[C@H]([C@@H](C)CC)NC(=O)[C@H](C(C)C)NC(=O)[C@H](CC(C)C)NC1=O) [SP-33]
2,> 700 nM,Ac-FIDEEVLD[S5]LVI[S5][Nle]ALDRI-NH2 (staple 9-13; SMILES CCCC[C@H](NC(=O)[C@]1(C)CCCC=CCCC[C@](C)(NC(=O)[C@H](CC(=O)O)NC(=O)[C@H](CC(C)C)NC(=O)[C@@H](NC(=O)[C@H](CCC(=O)O)NC(=O)[C@H](CCC(=O)O)NC(=O)[C@H](CC(=O)O)NC(=O)[C@@H](NC(=O)[C@H](Cc2ccccc2)NC(C)=O)[C@@H](C)CC)C(C)C)C(=O)N[C@@H](CC(C)C)C(=O)N[C@@H](C(C)C)C(=O)N[C@@H]([C@@H](C)CC)C(=O)N1)C(=O)N[C@@H](C)C(=O)N[C@@H](CC(C)C)C(=O)N[C@@H](CC(=O)O)C(=O)N[C@@H](CCCNC(=N)N)C(=O)N[C@H](C(N)=O)[C@@H](C)CC) [SP-34]
3,> 700 nM,Ac-FIDEEVL[Nle][S5]LVE[S5][Nle]ALDRI-NH2 (staple 9-13; SMILES CCCC[C@H](NC(=O)[C@H](CC(C)C)NC(=O)[C@@H](NC(=O)[C@H](CCC(=O)O)NC(=O)[C@H](CCC(=O)O)NC(=O)[C@H](CC(=O)O)NC(=O)[C@@H](NC(=O)[C@H](Cc1ccccc1)NC(C)=O)[C@@H](C)CC)C(C)C)C(=O)N[C@@]1(C)CCCC=CCCC[C@@](C)(C(=O)N[C@@H](CCCC)C(=O)N[C@@H](C)C(=O)N[C@@H](CC(C)C)C(=O)N[C@@H](CC(=O)O)C(=O)N[C@@H](CCCNC(=N)N)C(=O)N[C@H](C(N)=O)[C@@H](C)CC)NC(=O)[C@H](CCC(=O)O)NC(=O)[C@H](C(C)C)NC(=O)[C@H](CC(C)C)NC1=O) [SP-37]
4,> 700 nM,Ac-FIDEEVL[Nle][S5]LEI[S5][Nle]ALDRI-NH2 (staple 9-13; SMILES CCCC[C@H](NC(=O)[C@H](CC(C)C)NC(=O)[C@@H](NC(=O)[C@H](CCC(=O)O)NC(=O)[C@H](CCC(=O)O)NC(=O)[C@H](CC(=O)O)NC(=O)[C@@H](NC(=O)[C@H](Cc1ccccc1)NC(C)=O)[C@@H](C)CC)C(C)C)C(=O)N[C@@]1(C)CCCC=CCCC[C@@](C)(C(=O)N[C@@H](CCCC)C(=O)N[C@@H](C)C(=O)N[C@@H](CC(C)C)C(=O)N[C@@H](CC(=O)O)C(=O)N[C@@H](CCCNC(=N)N)C(=O)N[C@H](C(N)=O)[C@@H](C)CC)NC(=O)[C@H]([C@@H](C)CC)NC(=O)[C@H](CCC(=O)O)NC(=O)[C@H](CC(C)C)NC1=O) [SP-36]
5,> 700 nM,Ac-FIDEEVL[Nle][S5]DVI[S5][Nle]ALDRI-NH2 (staple 9-13; SMILES CCCC[C@H](NC(=O)[C@H](CC(C)C)NC(=O)[C@@H](NC(=O)[C@H](CCC(=O)O)NC(=O)[C@H](CCC(=O)O)NC(=O)[C@H](CC(=O)O)NC(=O)[C@@H](NC(=O)[C@H](Cc1ccccc1)NC(C)=O)[C@@H](C)CC)C(C)C)C(=O)N[C@@]1(C)CCCC=CCCC[C@@](C)(C(=O)N[C@@H](CCCC)C(=O)N[C@@H](C)C(=O)N[C@@H](CC(C)C)C(=O)N[C@@H](CC(=O)O)C(=O)N[C@@H](CCCNC(=N)N)C(=O)N[C@H](C(N)=O)[C@@H](C)CC)NC(=O)[C@H]([C@@H](C)CC)NC(=O)[C@H](C(C)C)NC(=O)[C@H](CC(=O)O)NC1=O) [SP-35]
